{
  "source": "paper doi:10.1101/716654",
  "about": "(bioRxiv, 2019)",
  "proteins": {"B1": {"name": "hNav1.7^GFP (human voltage-gated sodium channel Nav1.7 fused to C-terminal GFP) (natural protein)", "chain": "not shown"}},
  "molecular_target": "the molecule itself",
  "experiment": "native gel or EMSA",
  "data": [
    {"protein": "B1", "values": [
      {"measurement": "stoichiometry N", "value": 2}
    ]}
  ]
}
